This note sets out measurements from patent US20210371529A1 (Innovent, published 2021).

In general, IC50 refers to the concentration that gives 50% inhibition. A low value points to inhibition by little substance. For orientation: EC50 means the concentration giving half of the maximal effect. Low values mean greater potency, high ones weaker potency. Usually koff stands for the first-order rate constant of dissociation. A lower koff goes with a long-lived complex. As a reminder, the kon is the second-order rate constant of association. A low value points to slow association.

One test deals with T1, rhLAG3 protein (huFc) (human, UniProt P18627 23-450, limits assumed).
T1 construct: Bought Fc fusion; also called antigen rhLAG3 protein (huFc) (Sino Biological); human LAG-3; not shown: human Fc
T1 sequence (looked up): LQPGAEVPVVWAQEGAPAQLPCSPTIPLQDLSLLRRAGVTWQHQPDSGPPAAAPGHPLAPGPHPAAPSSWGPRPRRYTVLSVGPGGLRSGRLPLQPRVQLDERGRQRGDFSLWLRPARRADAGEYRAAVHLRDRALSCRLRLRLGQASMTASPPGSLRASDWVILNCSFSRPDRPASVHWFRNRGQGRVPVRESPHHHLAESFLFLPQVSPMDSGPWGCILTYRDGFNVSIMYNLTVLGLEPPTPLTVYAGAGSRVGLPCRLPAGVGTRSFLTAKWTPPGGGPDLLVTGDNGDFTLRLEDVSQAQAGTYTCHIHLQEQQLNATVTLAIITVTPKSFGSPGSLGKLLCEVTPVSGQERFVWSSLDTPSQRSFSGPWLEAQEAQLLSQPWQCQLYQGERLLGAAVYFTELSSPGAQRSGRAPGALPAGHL
The test is described as follows: flow cytometry, blocking of rhLAG3 (huFc) 20 nM binding to HLA-DR on CHO-DR cells. How it is done: Antigen rhLAG3 protein (huFc) (Sino Biological) was diluted to 40 nM, 50 μL/well. […] 50 μL of the diluted antibodies was added to each well, and incubated in PBS on ice for 30 min. The final antigen concentration was 20 nM and the maximum antibody concentration was 40 nM. The CHO-DR cells were adjusted to 3×10⁵ cells/well, 100 μL/well. The cells were centrifuged at 300 g for 5 min. The supernatant was discarded. Then the cells were resuspended in an antigen-antibody mixture. The mixture was incubated on ice for 30 min. PBS was added, 100 μL/well. After centrifugation at 300 g for 5 min, the mixture was washed with PBS once. 100 μL of goat anti-human IgG-PE (Southern Biotech) diluted in 1:100 was added to each well. After a 20-min ice bath, PBS was added, 100 μL/well. The mixture was centrifuged at 300 g for 5 min, prior to one wash with PBS. The cells were resuspended with 100 μL of PBS. The cell fluorescence signal values were measured by flow cytometry (BD Biosciences).

Test [1] has as its target T2, mouse LAG-3 overexpressed on CHO cells (mouse, UniProt Q61790 24-521).
T2 construct: whole, on cells; also called CHO-mLAG-3 cells; mouse LAG-3 on the cell surface
T2 sequence (looked up): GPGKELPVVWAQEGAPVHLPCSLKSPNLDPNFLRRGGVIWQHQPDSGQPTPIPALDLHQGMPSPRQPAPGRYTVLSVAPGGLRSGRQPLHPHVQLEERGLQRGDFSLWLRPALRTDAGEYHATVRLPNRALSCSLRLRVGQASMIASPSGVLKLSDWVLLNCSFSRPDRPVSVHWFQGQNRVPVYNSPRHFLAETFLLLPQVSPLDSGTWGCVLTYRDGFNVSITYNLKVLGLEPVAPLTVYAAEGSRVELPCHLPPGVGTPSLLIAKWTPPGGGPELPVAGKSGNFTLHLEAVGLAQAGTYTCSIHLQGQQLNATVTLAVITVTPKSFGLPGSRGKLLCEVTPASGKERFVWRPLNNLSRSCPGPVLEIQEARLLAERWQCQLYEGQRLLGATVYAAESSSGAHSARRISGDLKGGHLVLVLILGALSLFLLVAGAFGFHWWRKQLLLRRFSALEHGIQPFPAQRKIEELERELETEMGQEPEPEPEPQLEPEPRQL
The test is described as follows: flow cytometry (MFI) on CHO cells overexpressing mouse LAG-3; value from the EC50 table on the sheet, which has no unit of its own (concentration axis in nM); the curve has no plateau. How it is done: (§1) The cells were incubated on ice for 30 min. The cells were then washed at least twice prior to addition of a secondary antibody (a PE-labeled goat anti-human IgG antibody, Southern Biotech, final concentration […]) diluted in 1:100, and incubated on ice (protected from light) for 30 minutes. The cells were washed at least twice and analyzed by flow cytometry. The flow cytometry assay was performed on an Accuri C6 system (BD Biosciences), and a concentration-dependent curve was fitted with GraphPad according to the mean fluorescence intensity (MFI).
In general terms: Flow cytometry measures light scatter and fluorescence of single cells or particles in a stream.

The target of a further test is T3, human LAG-3-His (human, UniProt P18627 23-450).
T3 construct: Bought antigen (ArcoBiosystems), 100 nM in solution in the ForteBio assay; also called human LAG-3 antigen (ArcoBiosystems); hLAG-3; not shown: His tag
T3 sequence (looked up): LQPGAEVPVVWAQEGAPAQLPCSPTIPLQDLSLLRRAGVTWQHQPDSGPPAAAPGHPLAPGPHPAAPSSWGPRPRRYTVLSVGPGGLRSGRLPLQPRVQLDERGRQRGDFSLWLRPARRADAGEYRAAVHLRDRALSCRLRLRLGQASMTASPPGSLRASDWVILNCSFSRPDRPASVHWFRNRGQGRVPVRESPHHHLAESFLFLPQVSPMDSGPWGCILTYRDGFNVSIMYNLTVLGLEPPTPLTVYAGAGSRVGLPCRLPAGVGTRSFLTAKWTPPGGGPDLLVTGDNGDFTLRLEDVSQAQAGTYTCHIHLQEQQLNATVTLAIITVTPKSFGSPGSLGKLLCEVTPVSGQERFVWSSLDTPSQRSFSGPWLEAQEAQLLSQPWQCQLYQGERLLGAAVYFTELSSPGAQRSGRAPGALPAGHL
The test is described as follows: BLI (ForteBio), antibody on AHQ tip, human LAG-3-His 100 nM in solution. The protocol:
The purified antibody obtained as described above was loaded on-line onto an AHQ sensor (ForteBio) for ForteBio affinity assay. The sensor with the loaded antibody was then exposed to 100 nM of a human LAG-3 antigen (ArcoBiosystems) for 5 minutes before transferring the sensor to the assay buffer for dissociation for 5 minutes for dissociation rate measurement. Kinetic analysis was performed using a 1:1 binding model.
On the technique in general: Biolayer interferometry detects binding as a change in optical thickness at a sensor tip.

Test [2] concerns the target T2, mouse LAG-3 overexpressed on CHO cells. The test is described as follows: flow cytometry on CHO-mLAG-3 cells, MFI curve. How it is done:
as §1

B1: ADI-31851 (antibody, human IgG4 S228P, kappa, F234A L235A, V domains shown)
VH: QLQLQESGPGLVKPSETLSLTCTVSGGSISSPDYYWGWIRQPPGKGLEWIGSIVYSGYTYYNPSLKSRVTISVDTSKNQFSLKLSSVTAADTAVYYCARVRTWDQSFDIWGQGTMVTVSS
VL: DIQMTQSPSSLSASVGDRVTITCQAGQDISNYLNWYQQKPGKAPKLLIYDASNLETGVPSRFSGSGSGTDFTFTISSLQPEDIATYYCQQVLELPPWTFGGGTKVEIKR
notes: IgG4 heavy chain constant region with kappa light chain; expressed in HEK293 cells
In the test with rhLAG3 protein (huFc), B1 displayed a 50% inhibitory concentration (IC50) of 5.85 nM. This molecule also had an EC50 in test [1] of roughly 12.1 µM. In the test with human LAG-3-His, this molecule registered an off-rate constant (koff) of 0.0002 s⁻¹ and an on-rate constant (kon) of 330000 M⁻¹ s⁻¹.

B2: ADI-31853 (antibody, human IgG4 S228P, kappa, F234A L235A, V domains shown)
VH: QLQLQESGPGLVKPSETLSLTCTVSGGSIYSESYYWGWIRQPPGKGLEWIGSIVYSGYTYYNPSLKSRVTISVDTSKNQFSLKLSSVTAADTAVYYCARVRTWDAAFDIWGQGTMVTVSS
VL: DIQMTQSPSSLSASVGDRVTITCQASQDISNYLNWYQQKPGKAPKLLIYDASNLETGVPSRFSGSGSGTDFTFTISSLQPEDIATYYCQQVLELPPWTFGGGTKVEIKR
notes: as for B1
Take B2: in the test with rhLAG3 protein (huFc), the IC50 was 4.53 nM. The molecule also yielded an EC50 in test [2] of 42.3 nM. In the test with human LAG-3-His, the koff turned out to be 0.0002 s⁻¹ and the association rate constant (kon) worked out at 322000 M⁻¹ s⁻¹.
